The results in this text go back to patent publication US20230285394A1, “METHODS OF TREATMENT OF NON-SMALL-CELL LUNG CARCINOMA USING TELISOTUZUMMAB VEDOTIN AND OSIMERTINIB” (AbbVie Biotherapeutics Inc., priority 2022, published 2023).

For assay [1], the system named is c-Met positive (≥25% 3+ IHC staining) advanced non-squamous NSCLC, EGFR mutant. Briefly: Phase 2 study (NCT03539536) of Teliso-V monotherapy, objective response rate. The assay is classed as in vivo, human. As to conditions: Teliso-V monotherapy 1.9 mg/kg.
The test system of a further assay is c-Met expressing NSCLC. Briefly: First in human phase I trial of Teliso-V monotherapy (NCT02099058), best overall response by c-Met IHC cutoff. It counts as in vivo.
Excerpt: (§1) The clinical modeling data was obtained from the Teliso-V monotherapy trial NCT02099058. Abbreviations shown in FIG. 5 and determination of the values in the table are as follow: PPA (positive percent agreement): #oV positive uV positive/Total uV positive; NPA (Negative percent agreement): #oV negative uV negative/Total uV negative; OPA (Overall percent agreement): #oV positive uV positive+#oV negative uV negative/Total number of samples tested; PPV (Positive predictive value): #of oV positive uV positive/total #of oV positive; NPV (Negative predictive value): #of oV negative uV negative/Total oV negative. % BOR represents the percent best overall response.
as §1, with “FIG. 6” for “FIG. 5”
An analytical method comparison between SP44 Ultraview and SP44 OptiView on a large cohort of commercial NSCLC tissues was performed (FIG. 4). […] The overall percent agreement at this cutoff between the two assays was 93%. The first in human phase I clinical trial for Teliso-V monotherapy in NSCLC enrolled patients with an H-score of 150 using the SP44 UltraView assay. Upon re-scoring of the slides, the optimal cutoff utilizing the SP44 Ultraview IHC assay was ≥25% 3+ with a best overall response of 56%. The best overall response for the OptiView IHC assay at the same cutoff, ≥25% 3+, utilizing the phase I data through statistical modeling was 52% (FIG. 5).
The first in human phase I clinical trial for Teliso-V monotherapy in NSCLC enrolled patients with an H-score of 150 using the SP44 UltraView assay. […] The best overall response for the OptiView IHC assay at the same cutoff, ≥50% 3+, utilizing the phase I data through statistical modeling was 63% (FIG. 6).

B1: telisotuzumab vedotin (conjugate, chains of the INN, looked up)
VH: QVQLVQSGAEVKKPGASVKVSCKASGYIFTAYTMHWVRQAPGQGLEWMGWIKPNNGLANYAQKFQGRVTMTRDTSISTAYMELSRLRSDDTAVYYCARSEITTEFDYWGQGTLVTVSS
VL: DIVMTQSPDSLAVSLGERATINCKSSESVDSYANSFLHWYQQKPGQPPKLLIYRASTRESGVPDRFSGSGSGTDFTLTISSLQAEDVAVYYCQQSKEDPLTFGGGTKVEIK
modifications: vc-MMAE payload
notes: ADC of the c-Met targeting antibody ABT-700 conjugated to monomethyl auristatin E (MMAE) through a valine citrulline linker
B1: the “ORR (CR + PR)” value was found to be 11.6% in assay [1] (non-squamous NSCLC EGFR mutant patients, c-Met ≥25% 3+, interim analysis); 0% in assay [1] (subset of EGFR mutant subjects previously treated with osimertinib); 0% in assay [1] (subset of EGFR mutant subjects previously treated with osimertinib, listed as Teliso V). Besides, the best overall response was 52% in the assay on c-Met expressing NSCLC (patients at ≥25% 3+ cutoff, OptiView IHC assay, phase I data through statistical modeling); 56% in the assay on c-Met expressing NSCLC (patients at ≥25% 3+ cutoff, SP44 Ultraview IHC assay, re-scored slides); 63% in the assay with c-Met expressing NSCLC (patients at ≥50% 3+ cutoff, OptiView IHC assay, phase I data through statistical modeling); 67% in the assay on c-Met expressing NSCLC (patients at ≥50% 3+ membrane staining cutoff, SP44 Ultraview IHC assay, re-scored slides).
